This note sets out measurements from publication PMC7949044, “The cytoplasmic domain of the AAA+ protease FtsH is tilted with respect to the membrane to facilitate substrate entry” (The Journal of Biological Chemistry, 2020).

Series [1] deals with AaFtsH-Δ20 mutant (Aquifex aeolicus) (UniProt O67077). The series is described as follows: SEC-MALS; Superose 6 Increase 10/300 GL, 20 mM Tris-HCl pH 8.0, 150 mM NaCl, 0.01% LMNG, room temperature; protein conjugate analysis; step: subunits to hexamer (second peak). On the technique in general: SEC sorts molecules by how far they enter the pores of the column.
Substrate in the series “purified protein”: Nc1ncnc2c1ncn2[C@@H]1O[C@H](COP(=O)(O)OP(=O)(O)OP(=O)(O)O)[C@@H](O)[C@H]1O
The series is described as follows: purified protein. The settings on record: 50 mM Tris-HCl pH 8.0, 150 mM NaCl, 10 mM MgCl2, 60 °C, 0.25 μM AaFtsH (monomer concentration).

Series [2] deals with the molecule itself. The series is described as follows: SEC-MALS; Superose 6 Increase 10/300 GL, 20 mM Tris-HCl pH 8.0, 150 mM NaCl, 0.01% LMNG, room temperature; protein conjugate analysis; step: subunits to hexamer (second peak).
Series [3] deals with the molecule itself. The series is described as follows: SEC-MALS; Superose 6 Increase 10/300 GL, 20 mM Tris-HCl pH 8.0, 150 mM NaCl, 0.01% LMNG, room temperature; protein conjugate analysis; step: two hexamers to a dodecamer in one LMNG micelle (first peak).

A word on the stoichiometry N: it is a count of units in the complex or per binding partner. In the case of “AaFtsH-Δ20 mutant (from UniProt O67077 1-634) (enzyme)”, the stoichiometry N in series [1] worked out at 6.

B1: AaFtsH hexamer (Aquifex aeolicus VF5) (protein)
chain: MNALKNFFIWAIIIGAAIVAFNLFEGKREFTTKVSLNEVVKLVEEGKVSYAEVRGNTAIIQTKDGQKLEVTLPPNTNLVDKMVEKGVRVEVANPEPPGGWLVNVFLSWLPILFFIGIWIFLLRQMSGGGNVNRAFNFGKSRAKVYIEEKPKVTFKDVAGIEEVKEEVKEIIEYLKDPVKFQKLGGRPPKGVLLYGEPGVGKTLLAKAIAGEAHVPFISVSGSDFVEMFVGVGAARVRDLFETAKKHAPCIIFIDEIDAVGRARGAIPVGGGHDEREQTLNQLLVEMDGFDTSDGIIVIAATNRPDILDPALLRPGRFDRQIFIPKPDVRGRYEILKVHARNKKLAKDVDLEFVARATPGFTGADLENLLNEAALLAARKGKEEITMEEIEEALDRITMGLERKGMTISPKEKEKIAIHEAGHALMGLVSDDDDKVHKISIIPRGMALGVTQQLPIEDKHIYDKKDLYNKILVLLGGRAAEEVFFGKDGITTGAENDLQRATDLAYRMVSMWGMSDKVGPIAIRRVANPFLGGMTTAVDTSPDLLREIDEEVKRIITEQYEKAKAIVEEYKEPLKAVVKKLLEKETITCEEFVEVFKLYGIELKDKCKKEELFDKDRKSEENKELKSEEVKEEVV
A word on the kcat: it is the number of substrate molecules converted per active site and unit of time at saturation. On to B1, for which, in “purified protein”, the Km is listed as 600 (95% CI: 480–754) μM and the kcat is 1.05 s⁻¹.

B2: AaFtsH dodecamer (Aquifex aeolicus VF5) (protein)
chain: B1 chain
With B2, in “purified protein”, the Km is 518 (95% CI: 432–625) μM and the kcat came to 1.02 s⁻¹.

B3: full-length Aquifex aeolicus FtsH (enzyme, UniProt O67077 1-634, looked up)
chain: B1 chain
notes: the cited crystal structure PDB 4WW0 holds only the cytosolic domain, residues 141-608; The molecule is the protomer; In LMNG it is found as a hexamer (second SEC peak) and as a dodecamer of two hexamers in one LMNG micelle (first SEC peak); Before SEC it was incubated overnight at 60 °C with 20 mM ATP, 10 mM MgCl2 and 25 uM ZnCl2; also called AaFtsH; AaFtsH wildtype; source: E. coli, …
Consider B3, for which the “stoichiometry N” value in series [2] was 6; in series [3], ~12.
